Measured values taken from paper PMC4894655, “Three proliferating cell nuclear antigen homologues from Metallosphaera sedula form a head-to-tail heterotrimer” (Scientific Reports, 2016).

What was measured:
SsoPCNA2 [1] = biological target: T1, SsoPCNA2 (Sulfolobus solfataricus); experiment: SPR; 5 nM SsoPCNA1
T1 chain: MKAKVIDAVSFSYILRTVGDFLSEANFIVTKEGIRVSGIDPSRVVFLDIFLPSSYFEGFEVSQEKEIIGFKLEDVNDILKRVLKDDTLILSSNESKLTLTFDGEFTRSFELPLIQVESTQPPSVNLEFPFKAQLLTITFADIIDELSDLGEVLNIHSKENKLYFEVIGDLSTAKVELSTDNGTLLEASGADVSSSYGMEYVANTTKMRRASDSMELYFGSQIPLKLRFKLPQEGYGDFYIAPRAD

MsePCNA2 [2] = biological target: T2, MsePCNA2 (Metallosphaera sedula, UniProt A4YHP5 1-244); experiment: SPR; 5 nM SsoPCNA1
T2 chain: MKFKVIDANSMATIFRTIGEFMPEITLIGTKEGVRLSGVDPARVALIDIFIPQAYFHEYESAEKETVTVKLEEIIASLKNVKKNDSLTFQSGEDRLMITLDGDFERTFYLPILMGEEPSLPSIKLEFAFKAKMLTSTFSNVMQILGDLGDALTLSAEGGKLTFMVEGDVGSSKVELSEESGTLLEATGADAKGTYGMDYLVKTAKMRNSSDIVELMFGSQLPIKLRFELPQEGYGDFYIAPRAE

SsoPCNA2 [3] = biological target: T1, SsoPCNA2; experiment: SPR; 5 nM SsoPCNA1
SsoPCNA2 [4] = biological target: T1, SsoPCNA2; experiment: SPR; 10 nM SsoPCNA1
MsePCNA2 [5] = biological target: T2, MsePCNA2; experiment: SPR; 10 nM SsoPCNA1
SsoPCNA2 [6] = biological target: T1, SsoPCNA2; experiment: SPR; 20 nM SsoPCNA1
MsePCNA2 [7] = biological target: T2, MsePCNA2; experiment: SPR; 20 nM SsoPCNA1
SsoPCNA2 [8] = biological target: T1, SsoPCNA2; experiment: SPR; 40 nM SsoPCNA1
SsoPCNA2 [9] = biological target: T1, SsoPCNA2; experiment: SPR; 75 nM SsoPCNA1
MsePCNA2 [10] = biological target: T2, MsePCNA2; experiment: SPR; 75 nM SsoPCNA1
MsePCNA2 [11] = biological target: T2, MsePCNA2; experiment: SPR; 10 nM SsoPCNA1
SsoPCNA2 [12] = biological target: T1, SsoPCNA2; experiment: SPR; 20 nM SsoPCNA1
MsePCNA2 [13] = biological target: T2, MsePCNA2; experiment: SPR; 20 nM SsoPCNA1
MsePCNA2 [14] = biological target: T2, MsePCNA2; experiment: SPR; 40 nM SsoPCNA1
MsePCNA2 [15] = biological target: T2, MsePCNA2; experiment: SPR; 75 nM SsoPCNA1
SsoPCNA2 [16] = biological target: T1, SsoPCNA2; experiment: SPR; 2.5 nM SsoPCNA1
MsePCNA2 [17] = biological target: T2, MsePCNA2; experiment: SPR; 2.5 nM SsoPCNA1
SsoPCNA2 [18] = biological target: T1, SsoPCNA2; experiment: SPR; 2.5 nM SsoPCNA1
MsePCNA2 [19] = biological target: T2, MsePCNA2; experiment: SPR; 2.5 nM SsoPCNA1
SsoPCNA2 [20] = biological target: T1, SsoPCNA2; experiment: SPR; 0.61 nM SsoPCNA1
MsePCNA2 [21] = biological target: T2, MsePCNA2; experiment: SPR; 0.61 nM SsoPCNA1
SsoPCNA2 [22] = biological target: T1, SsoPCNA2; experiment: SPR; 0.61 nM SsoPCNA1
MsePCNA2 [23] = biological target: T2, MsePCNA2; experiment: SPR; 0.61 nM SsoPCNA1
SsoPCNA2 [24] = biological target: T1, SsoPCNA2; experiment: SPR; Biacore; about 350 RU of MsePCNA2 or SsoPCNA2 immobilised on Sensor Chip CM5; MsePCNA1 or SsoPCNA1 injected (2.5, 5, 10, 20, 40 nM), kinetic fit; 10 mM HEPES-HCl pH 7.4, 150 mM NaCl

B1: SsoPCNA1 (natural protein)
chain: MFKIVYPNAKDFFSFINSITNVTDSIILNFTEDGIFSRHLTEDKVLMAIMRIPKDVLSEYSIDSPTSVKLDVSSVKKILSKASSKKATIELTETDSGLKIIIRDEKSGAKSTIYIKAEKGQVEQLTEPKVNLAVNFTTDESVLNVIAADVTLVGEEMRISTEEDKIKIEAGEEGKRYVAFLMKDKPLKELSIDTSASSSYSAEMFKDAVKGLRGFSAPTMVSFGENLPMKIDVEAVSGGHMIFWIAPRL
- koff (SsoPCNA2 [1]): 0.000173 s⁻¹
- koff (MsePCNA2 [2]): 0.000505 s⁻¹
- Kd (SsoPCNA2 [3]): 0.602 nM
- koff (SsoPCNA2 [4]): 0.000182 s⁻¹
- koff (MsePCNA2 [5]): 0.000501 s⁻¹
- koff (SsoPCNA2 [6]): 0.000163 s⁻¹
- koff (MsePCNA2 [7]): 0.000472 s⁻¹
- koff (SsoPCNA2 [8]): 0.000134 s⁻¹
- koff (SsoPCNA2 [9]): 3.07e-05 s⁻¹
- koff (MsePCNA2 [10]): 9.46e-05 s⁻¹
- Kd (MsePCNA2 [11]): 1.57 nM
- Kd (SsoPCNA2 [12]): 0.116 nM
- Kd (MsePCNA2 [13]): 2.67 nM
- Kd (MsePCNA2 [14]): 1.63 nM
- Kd (MsePCNA2 [15]): 2.14 nM
- koff (SsoPCNA2 [16]): 0.000171 s⁻¹
- koff (MsePCNA2 [17]): 0.000512 s⁻¹
- Kd (SsoPCNA2 [18]): 0.473 nM
- Kd (MsePCNA2 [19]): 1.41 nM
- koff (SsoPCNA2 [20]): 0.000172 s⁻¹
- koff (MsePCNA2 [21]): 0.000528 s⁻¹
- Kd (SsoPCNA2 [22]): 0.383 nM
- Kd (MsePCNA2 [23]): 1.21 nM
- Kd (SsoPCNA2 [24]): 0.65 nM
- koff (SsoPCNA2 [24]): 0.00015 s⁻¹
- kon (SsoPCNA2 [24]): 250000 M⁻¹ s⁻¹
